Patent publication US20260209311A1, “MODIFIED G PROTEIN COUPLED RECEPTOR AND USE THEREOF” (ALPHELIX BIOTECH CO., LTD., priority 2023, published 2026)

Target: T1, modified GPR75 (GPR75-GFP10-11 modified protein complex) (Homo sapiens, UniProt O95800, A308G/DEL234-307/I309H/INS313[…]/N310Y)
T1 construct: obesity-related receptor GPR75 (1-395); signal peptide (N); made in house; The clamp protein is made in E. coli Rosetta 2 (DE3), as described for GFP-clamp
Assay: SPR determination of affinity of purified modified GPR75 to CCL5 ligand
Format: binding
Conditions: Biacore 8K, Series S Sensor SA chip, pH 7.4; values only in FIG. 79 C
Protocol: The purification and identification method of the modified GPR75 fusion protein refers to Example 4. The difference is that during the purification, GFP-clamp-avi-biotin was added rather than GFP-clamp. The molecular sieve chromatography result graph of the modified fusion protein is seen in A of FIG. 79, and the SDS gel electrophoresis result graph of the modified fusion protein is seen in B of FIG. 79.
The purified GPR75 was used for determination of affinity to CCL5 ligand via surface plasmon resonance (SPR). The used instrument was Biacore 8K, and the chip was Series S Sensor SA Chip:SA-2429. Both a protein immobilization buffer and a running buffer contained 20 mM HEPES, 150 mM NaCl, 0.005% LMNG and 0.0005% CHS, pH 7.4. The affinity determination results are seen in C of FIG. 79.

CCL5: CCL5 ligand of the obesity-related receptor GPR75
affinity (SPR): close to reported results
